In general, Tm refers to the temperature at the midpoint of the melting transition.

Sequences and labels used below:
B1: Dihydrofolate reductase, Q5KZ26 (parent)
chain: MISHIVAMDENRVIGKDNRLPWHLPADLAYFKRVTMGHAIVMGRKTFEAIGRPLPGRDNVVVTRNRSFRPEGCLVLHSLEEVKQWIASRADEVFIIGGAELFRATMPIVDRLYVTKIFASFPGDTFYPPISDDEWEIVSYTPGGKDEKNPYEHAFIIYERKKAK

Variants of B1 are the subject of the data set. The following applies: Geobacillus kaustophilus (strain HTA426); pH 7; Thermal; CD; Potassium Phosphate Buffer 10 mM; structure 1ZDR; whole UniProt chain shown.

For the variant MISHIVAMDENRVIGKDNRMPWHLPADLAYFKRVTMGHAIVMGRKTFEAIGRPLPGRDNVVVTRNRSFRPEGCLVLHSLEEVKQWIASRADEVFIIGGAELFRQTMPIVDRLYVTKIFASFPGDTFYPPISDDEWEIVSYTPGGKDEKNPYEHAFIIYERKKAK [L20M A104Q], the Tm came to 61.1 °C and the “change of melting temperature, mutant - wild type (higher = more stable)” value (from here on “change of melting temperature, mutant”) was -5.1 °C.

As to MISHIVAMDENRVIGKDNRLPWHLPADLAYFKRVTMGHAIVMGRKTFEAIGRPLPGRDNVVVTRNRSFRPEGCLVLHSLEEVKQWIASRADEVFIIGGAELFRATMPIVDRLYVTKIFASFEGDTFYPPISDDEWEIVSYTPGGKDEKNPYEHAFIIYERKKAK [P122E], the Tm was determined as 65.3 °C and the “change of melting temperature, mutant” value is -0.9 °C.

On to MISHIVAMDENRVIGKDNRMPWHLPADLAYFKRVTMGHAIVMGRKTFEAIGRPLPGRDNVVVTRNRSFRPEGCLVLHSLEEVKQWIASRADEVFIIGGAELFRATMPIVDRLYVTKIFASFPGDTFYPPISDDEWEIVSYTPGGKDEKNPYEHAFIIYERKKAK [L20M], for which the Tm turned out to be 61.4 °C and the “change of melting temperature, mutant” value was -4.8 °C.

MISHIVAMDENRVIGKDNRLPWHLPADLAYFKRVTMGHAIVMGRKTFEAIGRPLPGRDNVVVTRNRSFRPEGCLVLHSLEEVKQWIASRADEVFIIGGAELFRATMPIVDRLYVTKIFASFEGDTFYPDISDDEWEIVSYTPGGKDEKNPYEHAFIIYERKKAK [P122E P129D]: the Tm is 65 °C and the “change of melting temperature, mutant” value was -1.2 °C.

Take MISHIVAMDENRVIGKDNRLPWHLPADLAYFKRVTMGHAIVMGRKTFEAIGRPLPGRDNVVVTRNRSFRPEGCLVLHSLEEVKQWIASRADEVFIIGGAELFRATMPIVDRLYVTKIFASFPGDTFYPDISDDEWEIVSYTPGGKDEKNPYEHAFIIYERKKAK [P129D]: the Tm was 64.6 °C and the “change of melting temperature, mutant” value was -1.6 °C.
